In paper PMC9758056:

B1: LRRK2^RCKW (catalytic half of LRRK2: ROC, COR, kinase and WD40 domains), wild type, Q5S007 R1384A; K1385A (protein)
chain: KKAVPYNRMKLMIVGNTGSGKTTLLQQLMKTKKSDLGMQSATVGIDVKDWPIQIRDKAARDLVLNVWDFAGREEFYSTHPHFMTQRALYLAVYDLSKGQAEVDAMKPWLFNIKARASSSPVILVGTHLDVSDEKQRKACMSKITKELLNKRGFPAIRDYHFVNATEESDALAKLRKTIINESLNFKIRDQLVVGQLIPDCYVELEKIILSERKNVPIEFPVIDRKRLLQLVRENQLQLDENELPHAVHFLNESGVLLHFQDPALQLSDLYFVEPKWLCKIMAQILTVKVEGCPKHPKGIISRRDVEKFLSKKRKFPKNYMSQYFKLLEKFQIALPIGEEYLLVPSSLSDHRPVIELPHCENSEIIIRLYEMPYFPMGFWSRLINRLLEISPYMLSGRERALRPNRMYWRQGIYLNWSPEAYCLVGSEVLDNHPESFLKITVPSCRKGCILLGQVVDHIDSLMEEWFPGLLEIDICGEGETLLKKWALYSFNDGEEHQKILLDDLMKKAEEGDLLVNPDQPRLTIPISQIAPDLILADLPRNIMLNNDELEFEQAPEFLLGDGSFGSVYRAAYEGEEVAVKIFNKHTSLRLLRQELVVLCHLHHPSLISLLAAGIRPRMLVMELASKGSLDRLLQQDKASLTRTLQHRIALHVADGLRYLHSAMIIYRDLKPHNVLLFTLYPNAAIIAKIADYGIAQYCCRMGIKTSEGTPGFRAPEVARGNVIYNQQADVYSFGLLLYDILTTGGRIVEGLKFPNEFDELEIQGKLPDPVKEYGCAPWPMVEKLIKQCLKENPQERPTSAQVFDILNSAELVCLTRRILLPKNVIVECMVATHHNSRNASIWLGCGHTDRGQLSFLDLNTEGYTSEEVADSRILCLALVHLPVEKESWIVSGTQSGTLLVINTEDGKKRHTLEKMTDSVTCLYCNSFSKQSKQKNFLLVGTADGKLAIFEDKTVKLKGAAPLKILNIGNVSTPLMCLSESTNSTERNVMWGGCGTKIFSFSNDFTIQKLIETRTSQLFSYAAFSDSNIITVVVDTALYIAKQNSPVVEVWDKKTEKLCGLIDCVHFLREVMVKENKESKHKMSYSGRVKTLCLQKNTALWIGTGGGHILLLDLSTRRLIRVIYNFCNSVRVMMTAQLGSLKNVMLVLGYNRKNTEGTQKQKEIQSCLTVWDINLPHEVQNLEKHIEVRKELAEKMRRTSVE
B2: LRRK2^RCKW (catalytic half of LRRK2: ROC, COR, kinase and WD40 domains), wild type, Q5S007 R1731D; S2345D (protein)
chain: KKAVPYNRMKLMIVGNTGSGKTTLLQQLMKTKKSDLGMQSATVGIDVKDWPIQIRDKRKRDLVLNVWDFAGREEFYSTHPHFMTQRALYLAVYDLSKGQAEVDAMKPWLFNIKARASSSPVILVGTHLDVSDEKQRKACMSKITKELLNKRGFPAIRDYHFVNATEESDALAKLRKTIINESLNFKIRDQLVVGQLIPDCYVELEKIILSERKNVPIEFPVIDRKRLLQLVRENQLQLDENELPHAVHFLNESGVLLHFQDPALQLSDLYFVEPKWLCKIMAQILTVKVEGCPKHPKGIISRRDVEKFLSKKRKFPKNYMSQYFKLLEKFQIALPIGEEYLLVPSSLSDHRPVIELPHCENSEIIIRLYEMPYFPMGFWSRLINRLLEISPYMLSGRERALRPNDMYWRQGIYLNWSPEAYCLVGSEVLDNHPESFLKITVPSCRKGCILLGQVVDHIDSLMEEWFPGLLEIDICGEGETLLKKWALYSFNDGEEHQKILLDDLMKKAEEGDLLVNPDQPRLTIPISQIAPDLILADLPRNIMLNNDELEFEQAPEFLLGDGSFGSVYRAAYEGEEVAVKIFNKHTSLRLLRQELVVLCHLHHPSLISLLAAGIRPRMLVMELASKGSLDRLLQQDKASLTRTLQHRIALHVADGLRYLHSAMIIYRDLKPHNVLLFTLYPNAAIIAKIADYGIAQYCCRMGIKTSEGTPGFRAPEVARGNVIYNQQADVYSFGLLLYDILTTGGRIVEGLKFPNEFDELEIQGKLPDPVKEYGCAPWPMVEKLIKQCLKENPQERPTSAQVFDILNSAELVCLTRRILLPKNVIVECMVATHHNSRNASIWLGCGHTDRGQLSFLDLNTEGYTSEEVADSRILCLALVHLPVEKESWIVSGTQSGTLLVINTEDGKKRHTLEKMTDSVTCLYCNSFSKQSKQKNFLLVGTADGKLAIFEDKTVKLKGAAPLKILNIGNVSTPLMCLSESTNSTERNVMWGGCGTKIFSFSNDFTIQKLIETRTSQLFDYAAFSDSNIITVVVDTALYIAKQNSPVVEVWDKKTEKLCGLIDCVHFLREVMVKENKESKHKMSYSGRVKTLCLQKNTALWIGTGGGHILLLDLSTRRLIRVIYNFCNSVRVMMTAQLGSLKNVMLVLGYNRKNTEGTQKQKEIQSCLTVWDINLPHEVQNLEKHIEVRKELAEKMRRTSVE
B3: LRRK2^RCKW (catalytic half of LRRK2: ROC, COR, kinase and WD40 domains), wild type, Q5S007 S2345D (protein)
chain: KKAVPYNRMKLMIVGNTGSGKTTLLQQLMKTKKSDLGMQSATVGIDVKDWPIQIRDKRKRDLVLNVWDFAGREEFYSTHPHFMTQRALYLAVYDLSKGQAEVDAMKPWLFNIKARASSSPVILVGTHLDVSDEKQRKACMSKITKELLNKRGFPAIRDYHFVNATEESDALAKLRKTIINESLNFKIRDQLVVGQLIPDCYVELEKIILSERKNVPIEFPVIDRKRLLQLVRENQLQLDENELPHAVHFLNESGVLLHFQDPALQLSDLYFVEPKWLCKIMAQILTVKVEGCPKHPKGIISRRDVEKFLSKKRKFPKNYMSQYFKLLEKFQIALPIGEEYLLVPSSLSDHRPVIELPHCENSEIIIRLYEMPYFPMGFWSRLINRLLEISPYMLSGRERALRPNRMYWRQGIYLNWSPEAYCLVGSEVLDNHPESFLKITVPSCRKGCILLGQVVDHIDSLMEEWFPGLLEIDICGEGETLLKKWALYSFNDGEEHQKILLDDLMKKAEEGDLLVNPDQPRLTIPISQIAPDLILADLPRNIMLNNDELEFEQAPEFLLGDGSFGSVYRAAYEGEEVAVKIFNKHTSLRLLRQELVVLCHLHHPSLISLLAAGIRPRMLVMELASKGSLDRLLQQDKASLTRTLQHRIALHVADGLRYLHSAMIIYRDLKPHNVLLFTLYPNAAIIAKIADYGIAQYCCRMGIKTSEGTPGFRAPEVARGNVIYNQQADVYSFGLLLYDILTTGGRIVEGLKFPNEFDELEIQGKLPDPVKEYGCAPWPMVEKLIKQCLKENPQERPTSAQVFDILNSAELVCLTRRILLPKNVIVECMVATHHNSRNASIWLGCGHTDRGQLSFLDLNTEGYTSEEVADSRILCLALVHLPVEKESWIVSGTQSGTLLVINTEDGKKRHTLEKMTDSVTCLYCNSFSKQSKQKNFLLVGTADGKLAIFEDKTVKLKGAAPLKILNIGNVSTPLMCLSESTNSTERNVMWGGCGTKIFSFSNDFTIQKLIETRTSQLFDYAAFSDSNIITVVVDTALYIAKQNSPVVEVWDKKTEKLCGLIDCVHFLREVMVKENKESKHKMSYSGRVKTLCLQKNTALWIGTGGGHILLLDLSTRRLIRVIYNFCNSVRVMMTAQLGSLKNVMLVLGYNRKNTEGTQKQKEIQSCLTVWDINLPHEVQNLEKHIEVRKELAEKMRRTSVE
B4: LRRK2^RCKW (catalytic half of LRRK2: ROC, COR, kinase and WD40 domains), wild type, Q5S007 K1358A; K1359A (protein)
chain: KKAVPYNRMKLMIVGNTGSGKTTLLQQLMKTAASDLGMQSATVGIDVKDWPIQIRDKRKRDLVLNVWDFAGREEFYSTHPHFMTQRALYLAVYDLSKGQAEVDAMKPWLFNIKARASSSPVILVGTHLDVSDEKQRKACMSKITKELLNKRGFPAIRDYHFVNATEESDALAKLRKTIINESLNFKIRDQLVVGQLIPDCYVELEKIILSERKNVPIEFPVIDRKRLLQLVRENQLQLDENELPHAVHFLNESGVLLHFQDPALQLSDLYFVEPKWLCKIMAQILTVKVEGCPKHPKGIISRRDVEKFLSKKRKFPKNYMSQYFKLLEKFQIALPIGEEYLLVPSSLSDHRPVIELPHCENSEIIIRLYEMPYFPMGFWSRLINRLLEISPYMLSGRERALRPNRMYWRQGIYLNWSPEAYCLVGSEVLDNHPESFLKITVPSCRKGCILLGQVVDHIDSLMEEWFPGLLEIDICGEGETLLKKWALYSFNDGEEHQKILLDDLMKKAEEGDLLVNPDQPRLTIPISQIAPDLILADLPRNIMLNNDELEFEQAPEFLLGDGSFGSVYRAAYEGEEVAVKIFNKHTSLRLLRQELVVLCHLHHPSLISLLAAGIRPRMLVMELASKGSLDRLLQQDKASLTRTLQHRIALHVADGLRYLHSAMIIYRDLKPHNVLLFTLYPNAAIIAKIADYGIAQYCCRMGIKTSEGTPGFRAPEVARGNVIYNQQADVYSFGLLLYDILTTGGRIVEGLKFPNEFDELEIQGKLPDPVKEYGCAPWPMVEKLIKQCLKENPQERPTSAQVFDILNSAELVCLTRRILLPKNVIVECMVATHHNSRNASIWLGCGHTDRGQLSFLDLNTEGYTSEEVADSRILCLALVHLPVEKESWIVSGTQSGTLLVINTEDGKKRHTLEKMTDSVTCLYCNSFSKQSKQKNFLLVGTADGKLAIFEDKTVKLKGAAPLKILNIGNVSTPLMCLSESTNSTERNVMWGGCGTKIFSFSNDFTIQKLIETRTSQLFSYAAFSDSNIITVVVDTALYIAKQNSPVVEVWDKKTEKLCGLIDCVHFLREVMVKENKESKHKMSYSGRVKTLCLQKNTALWIGTGGGHILLLDLSTRRLIRVIYNFCNSVRVMMTAQLGSLKNVMLVLGYNRKNTEGTQKQKEIQSCLTVWDINLPHEVQNLEKHIEVRKELAEKMRRTSVE

Target: Taxol-stabilized microtubules from porcine brain tubulin, P02550
Sequence (P02550 other isoform, or with tags, fused parts or gaps, chain 1 of 2): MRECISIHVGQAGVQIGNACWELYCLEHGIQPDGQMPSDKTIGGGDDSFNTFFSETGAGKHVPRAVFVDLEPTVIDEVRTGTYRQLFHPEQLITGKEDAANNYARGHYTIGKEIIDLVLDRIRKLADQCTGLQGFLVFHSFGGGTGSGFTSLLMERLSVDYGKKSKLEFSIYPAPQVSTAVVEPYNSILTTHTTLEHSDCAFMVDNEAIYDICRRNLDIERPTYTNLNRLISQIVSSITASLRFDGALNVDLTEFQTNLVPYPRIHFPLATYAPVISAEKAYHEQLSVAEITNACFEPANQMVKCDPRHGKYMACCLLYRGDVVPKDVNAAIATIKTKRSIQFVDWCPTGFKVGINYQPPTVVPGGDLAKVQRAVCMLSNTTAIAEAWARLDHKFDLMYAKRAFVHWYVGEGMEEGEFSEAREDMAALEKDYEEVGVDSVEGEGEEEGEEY
Sequence (chain, as listed by the source, chain 2 of 2): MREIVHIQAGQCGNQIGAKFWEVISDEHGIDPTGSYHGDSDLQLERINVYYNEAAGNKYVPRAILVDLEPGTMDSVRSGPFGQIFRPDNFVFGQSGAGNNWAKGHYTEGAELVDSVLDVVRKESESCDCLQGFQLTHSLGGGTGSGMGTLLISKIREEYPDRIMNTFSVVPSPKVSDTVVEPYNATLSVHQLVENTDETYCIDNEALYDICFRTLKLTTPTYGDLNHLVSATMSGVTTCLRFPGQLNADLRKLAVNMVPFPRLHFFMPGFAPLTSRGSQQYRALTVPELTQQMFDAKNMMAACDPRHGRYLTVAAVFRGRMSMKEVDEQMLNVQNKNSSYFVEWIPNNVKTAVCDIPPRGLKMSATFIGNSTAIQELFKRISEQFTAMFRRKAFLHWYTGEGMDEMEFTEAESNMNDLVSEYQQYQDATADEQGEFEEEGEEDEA
Experiment: microtubule pelleting assay
Conditions: chain shown with the change;, read off a plot

| response (fraction microtubule bound) (parent: est. 0.78) | response (fraction microtubule bound) (parent: est. 0.70) | Binder |
| --- | --- | --- |
| 0.35 | – | B1 |
| – | 0.1 | B2 |
| – | 0.53 | B3 |
| 0.48 | – | B4 |
